# Measurements from publication PMC3175422.
# Molecular target: calreticulin (CRT) (UniProt P27797)
# Test: SPR
# UniProt P27797, sequence (P27797 18-417): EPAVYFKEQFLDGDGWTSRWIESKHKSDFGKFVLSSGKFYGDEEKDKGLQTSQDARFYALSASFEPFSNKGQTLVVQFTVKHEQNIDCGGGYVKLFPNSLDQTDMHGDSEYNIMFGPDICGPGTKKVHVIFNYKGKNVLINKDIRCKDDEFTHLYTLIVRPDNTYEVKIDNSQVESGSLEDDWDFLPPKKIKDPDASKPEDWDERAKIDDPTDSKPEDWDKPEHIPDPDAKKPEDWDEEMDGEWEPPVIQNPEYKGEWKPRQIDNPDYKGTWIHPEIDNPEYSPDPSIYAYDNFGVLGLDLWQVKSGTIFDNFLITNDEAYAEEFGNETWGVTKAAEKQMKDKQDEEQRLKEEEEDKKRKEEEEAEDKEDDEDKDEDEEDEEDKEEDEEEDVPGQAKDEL
Substance,Kd [nM],koff [s⁻¹],kon [M⁻¹ s⁻¹]
Gal1Glc1Man9GlcNAc2-RNase (2) (from UniProt P61823 27-150) (enzyme),110,0.00199,18100
Glc1Man9GlcNAc2-RNase (1) (from UniProt P61823 27-150) (enzyme),38,0.000482,12800
